Target: recombinant human α1A/βIII tubulin (human) (UniProt Q71U36)
Assay: in vitro microtubule dynamics assay

- critical concentration: 0.94 µM
- koff: 3.2 s⁻¹
- kon: 3.48e+06 M⁻¹ s⁻¹
Substance: recombinant human α1A/βIII tubulin (from UniProt Q71U36 1-451; Q13509 1-450) (complex)
